Assay results published in patent US20070078092A1 (CUREGENICS, published 2007).
Like-named read-outs stand apart in the source and are kept apart here. Square brackets hold non-standard residues; d marks the D form. Ends that are not written are not given here. * marks the point of attachment. Cholesteryloxycarbonyl = CC(C)CCC[C@@H](C)[C@H]1CC[C@H]2[C@@H]3CC=C4C[C@@H](OC(=O)*)CC[C@]4(C)[C@H]3CC[C@]12C; Lithocholoyl = C[C@H](CCC(=O)*)[C@H]1CC[C@H]2[C@@H]3CC[C@@H]4C[C@H](O)CC[C@]4(C)[C@H]3CC[C@]12C; Myristoyl = CCCCCCCCCCCCCC(=O)*; hLeu = CC(C)CC[C@H](N)C(=O)O; Nva = CCC[C@H](N)C(=O)O; Dap = NC[C@H](N)C(=O)O

What was measured:
Test in all cases: cell-based or functional assay
protein kinase B (PKB) [1] = molecular target: protein kinase B (PKB)
protein kinase A (PKA) [2] = molecular target: protein kinase A (PKA)
protein kinase B (PKB) [3] = molecular target: protein kinase B (PKB); remark: listed apart in the source
protein kinase B (PKB) [4] = molecular target: protein kinase B (PKB); remark: listed apart in the source
protein kinase B (PKB) [5] = molecular target: protein kinase B (PKB); remark: listed apart in the source
protein kinase A (PKA) [6] = molecular target: protein kinase A (PKA); remark: listed apart in the source

Row | Binder | % Inhibition of PKB activity at 1 µM (protein kinase B (PKB) [3]) [%] | % Inhibition of PKB activity at 10 µM (protein kinase B (PKB) [3]) [%] | IC50, in vitro PKB inhibition (protein kinase B (PKB) [4]) [nM] | IC50, kinase assay PKB (protein kinase B (PKB) [5]) [nM] | IC50, kinase assay PKA (protein kinase A (PKA) [6]) [nM] | further results
1 | Cholesteryloxycarbonyl-RPR[Nva]Y[Dap][hLeu]-NH2 (SMILES CCC[C@H](NC(=O)[C@H](CCCNC(=N)N)NC(=O)[C@@H]1CCCN1C(=O)[C@H](CCCNC(=N)N)NC(=O)O[C@H]1CC[C@@]2(C)C(=CC[C@H]3[C@@H]4CC[C@H]([C@H](C)CCCC(C)C)[C@@]4(C)CC[C@@H]32)C1)C(=O)N[C@@H](Cc1ccc(O)cc1)C(=O)N[C@@H](CN)C(=O)N[C@@H](CCC(C)C)C(N)=O) [PTR 6164] |  |  |  |  |  | IC50, kinase assay PKB (protein kinase B (PKB) [1]): 700 nM; IC50, kinase assay PKA (protein kinase A (PKA) [2]): 10000 nM
2 | Myristoyl-GRPR[Nva]Y[Dap][hLeu]-NH2 (SMILES CCCCCCCCCCCCCC(=O)NCC(=O)N[C@@H](CCCNC(=N)N)C(=O)N1CCC[C@H]1C(=O)N[C@@H](CCCNC(=N)N)C(=O)N[C@@H](CCC)C(=O)N[C@@H](Cc1ccc(O)cc1)C(=O)N[C@@H](CN)C(=O)N[C@@H](CCC(C)C)C(N)=O) [PTR 6180] |  |  |  |  |  | IC50, kinase assay PKB (protein kinase B (PKB) [1]): 900 nM; IC50, kinase assay PKA (protein kinase A (PKA) [2]): 20000 nM
3 | RPR[Nva]Y[Dap][hLeu][dK][dK][dK][dK][dK][dK][dK][dK][dK][dK]-NH2 (N-terminus assumed; SMILES CCC[C@H](NC(=O)[C@H](CCCNC(=N)N)NC(=O)[C@@H]1CCCN1C(=O)[C@@H](N)CCCNC(=N)N)C(=O)N[C@@H](Cc1ccc(O)cc1)C(=O)N[C@@H](CN)C(=O)N[C@@H](CCC(C)C)C(=O)N[C@H](CCCCN)C(=O)N[C@H](CCCCN)C(=O)N[C@H](CCCCN)C(=O)N[C@H](CCCCN)C(=O)N[C@H](CCCCN)C(=O)N[C@H](CCCCN)C(=O)N[C@H](CCCCN)C(=O)N[C@H](CCCCN)C(=O)N[C@H](CCCCN)C(=O)N[C@H](CCCCN)C(N)=O) [MPS ab60025-49] | 97 | 99 | 40 |  |  | 
4 | [dR][dR][dR][dR][dR][dR][dR]RPR[Nva]Y[Dap][hLeu]-NH2 (N-terminus assumed; SMILES CCC[C@H](NC(=O)[C@H](CCCNC(=N)N)NC(=O)[C@@H]1CCCN1C(=O)[C@H](CCCNC(=N)N)NC(=O)[C@@H](CCCNC(=N)N)NC(=O)[C@@H](CCCNC(=N)N)NC(=O)[C@@H](CCCNC(=N)N)NC(=O)[C@@H](CCCNC(=N)N)NC(=O)[C@@H](CCCNC(=N)N)NC(=O)[C@@H](CCCNC(=N)N)NC(=O)[C@H](N)CCCNC(=N)N)C(=O)N[C@@H](Cc1ccc(O)cc1)C(=O)N[C@@H](CN)C(=O)N[C@@H](CCC(C)C)C(N)=O) [MPS ab60025-94] | 76 | 92 | 400 |  |  | 
5 | Cholesteryloxycarbonyl-RPR[Nva]YA[hLeu]-NH2 (SMILES CCC[C@H](NC(=O)[C@H](CCCNC(=N)N)NC(=O)[C@@H]1CCCN1C(=O)[C@H](CCCNC(=N)N)NC(=O)O[C@H]1CC[C@@]2(C)C(=CC[C@H]3[C@@H]4CC[C@H]([C@H](C)CCCC(C)C)[C@@]4(C)CC[C@@H]32)C1)C(=O)N[C@@H](Cc1ccc(O)cc1)C(=O)N[C@@H](C)C(=O)N[C@@H](CCC(C)C)C(N)=O) [PTR 6196] |  |  |  |  |  | IC50, kinase assay PKB (protein kinase B (PKB) [1]): 500 nM; IC50, kinase assay PKA (protein kinase A (PKA) [2]): 5000 nM
6 | [dK][dK][dK][dK][dK][dK][dK][dK][dK][dK]RPR[Nva]Y[Dap][hLeu]-NH2 (N-terminus assumed; SMILES CCC[C@H](NC(=O)[C@H](CCCNC(=N)N)NC(=O)[C@@H]1CCCN1C(=O)[C@H](CCCNC(=N)N)NC(=O)[C@@H](CCCCN)NC(=O)[C@@H](CCCCN)NC(=O)[C@@H](CCCCN)NC(=O)[C@@H](CCCCN)NC(=O)[C@@H](CCCCN)NC(=O)[C@@H](CCCCN)NC(=O)[C@@H](CCCCN)NC(=O)[C@@H](CCCCN)NC(=O)[C@@H](CCCCN)NC(=O)[C@H](N)CCCCN)C(=O)N[C@@H](Cc1ccc(O)cc1)C(=O)N[C@@H](CN)C(=O)N[C@@H](CCC(C)C)C(N)=O) [MPS ab60025-50] | 93 | 98 | 80 |  |  | 
7 | Cholesteryloxycarbonyl-GRPR[Nva]YA[hLeu]-NH2 (SMILES CCC[C@H](NC(=O)[C@H](CCCNC(=N)N)NC(=O)[C@@H]1CCCN1C(=O)[C@H](CCCNC(=N)N)NC(=O)CNC(=O)O[C@H]1CC[C@@]2(C)C(=CC[C@H]3[C@@H]4CC[C@H]([C@H](C)CCCC(C)C)[C@@]4(C)CC[C@@H]32)C1)C(=O)N[C@@H](Cc1ccc(O)cc1)C(=O)N[C@@H](C)C(=O)N[C@@H](CCC(C)C)C(N)=O) [PTR 6198] |  |  |  |  |  | IC50, kinase assay PKB (protein kinase B (PKB) [1]): 500 nM; IC50, kinase assay PKA (protein kinase A (PKA) [2]): 5000 nM
8 | [dK][dK][dK][dK][dK][dK][dK][dK]RPR[Nva]Y[Dap][hLeu]-NH2 (N-terminus assumed; SMILES CCC[C@H](NC(=O)[C@H](CCCNC(=N)N)NC(=O)[C@@H]1CCCN1C(=O)[C@H](CCCNC(=N)N)NC(=O)[C@@H](CCCCN)NC(=O)[C@@H](CCCCN)NC(=O)[C@@H](CCCCN)NC(=O)[C@@H](CCCCN)NC(=O)[C@@H](CCCCN)NC(=O)[C@@H](CCCCN)NC(=O)[C@@H](CCCCN)NC(=O)[C@H](N)CCCCN)C(=O)N[C@@H](Cc1ccc(O)cc1)C(=O)N[C@@H](CN)C(=O)N[C@@H](CCC(C)C)C(N)=O) [MPS ab60025-82] | 78 | 92 | 400 |  |  | 
9 | RQIKIWFQNRRMKWKKRPRXYXX (Nva, Dap, Hol of the 6154 part) [MPS ab60025-2] | 60 | 92 | 1000 |  |  | 
10 | RQIKIWFQNRRMKWKKRPRXYAX (Nva, Hol of the 6184 part) [MPS ab60025-4] | 80 | 96 | 200 |  |  | 

More lines, main results first:

Row | % Inhibition of PKB activity at 1 µM (protein kinase B (PKB) [3]) [%] | % Inhibition of PKB activity at 10 µM (protein kinase B (PKB) [3]) [%] | IC50, in vitro PKB inhibition (protein kinase B (PKB) [4]) [nM] | IC50, kinase assay PKB (protein kinase B (PKB) [5]) [nM] | IC50, kinase assay PKA (protein kinase A (PKA) [6]) [nM] | Binder | further results
11 |  |  |  | 2000 | > 10000 | Lithocholoyl-RPR[Nva]YA[hLeu]-NH2 (SMILES CCC[C@H](NC(=O)[C@H](CCCNC(=N)N)NC(=O)[C@@H]1CCCN1C(=O)[C@H](CCCNC(=N)N)NC(=O)CC[C@@H](C)[C@H]1CC[C@H]2[C@@H]3CC[C@@H]4C[C@H](O)CC[C@]4(C)[C@H]3CC[C@]12C)C(=O)N[C@@H](Cc1ccc(O)cc1)C(=O)N[C@@H](C)C(=O)N[C@@H](CCC(C)C)C(N)=O) [PTR 6194] | 
12 |  |  |  | 300 | > 10000 | {H‑1‑adamantyl}-RPR[Nva]YA[hLeu]-NH2 [PTR 6200] | 
13 |  |  |  | 2500 | > 10000 | Lithocholoyl-GRPR[Nva]YA[hLeu]-NH2 [PTR 6192] | 
14 |  |  |  | 300 | > 10000 | RPR[Nva]YA[hLeu]-NH2 (not fully specified (N-terminus)) [PTR 6202] | 
15 |  |  |  | 5000 | 8000 | {Galactopyranosyl‑O‑CO}-RPR[Nva]YA[hLeu]-NH2 [PTR 6224] | 
